Measured values as given in paper PMC12780157 (Nature Communications, 2025).
Read-outs that look alike come from different tables or passages of the source.

Columns and labels:
[1] = target: β-tubulin (αβ-tubulin heterodimer); assay: X-ray co-crystal structure at […] Å; assay type: binding
[2] = target: recombinant Tubulin protein (cat# CSK-T240-B-T) (UniProt P02550); assay: ITC
[3] = target: recombinant Tubulin protein (cat# CSK-T240-B-T) (UniProt P02550); assay: ITC; remark: listed apart in the source
[4] = target: recombinant Tubulin protein (cat# CSK-T240-B-T) (UniProt P02550); assay: ITC; remark: listed apart in the source

Kd [1] [µM]	Kd [2] [µM]	Kd [3] [µM]	Kd [4] [µM]	Compound
0.15 ± 0.01				COc1c(Cl)cc([C@@H]2c3cc4c(cc3C[C@H]3C(=O)NC(=O)N23)OCCO4)cc1Cl [KY216, (6R,10aS)-6-(3,5-dichloro-4-methoxyphenyl)-2,3,10a,11-tetrahydro-[1,4]dioxino[2,3-g]imidazo[1,5-b]isoquinoline-8,10(6H,9H)-dione]
	1.53	1.49	0.52	recombinant VASH2 protein (cat# YHK84701) (from UniProt Q86V25 1-355) (enzyme)
